The values that follow come from paper PMC5693944.

Common to all, as to experiment: SEC-MALS
Test [1] concerns the target Ml1 protein from Mesorhizobium loti (Mesorhizobium loti).
The target of test [2] is Ml2 protein from Mesorhizobium loti (Mesorhizobium loti).
In test [3] the target is MucR from Brucella abortus (Brucella abortus 2308).

Regarding “Ml1 protein from Mesorhizobium loti (natural protein)”, the stoichiometry N in test [1] is 10.4.
As to “Ml2 protein from Mesorhizobium loti (natural protein)”, in test [2], the stoichiometry N worked out at 9.96.
As to “MucR from Brucella abortus (natural protein)”, in test [3], the stoichiometry N amounted to 10.4.
